In the Human Domainome abundance scans (Beltran et al. 2025):
± gives the uncertainty stated by the source.

Test: abundance fitness (aPCA) (normalised: wild type 0, dead -1); higher = more abundant; growth selection in yeast, the domain comes from the species named
Details: Saccharomyces cerevisiae (strain ATCC 204508 / S288c)

In order of falling abundance fitness:
1. E3 ubiquitin-protein ligase RSP5 T342D, P39940  0.173 ± 0.076
2. E3 ubiquitin-protein ligase RSP5 T327D, P39940  0.121 ± 0.07
3. E3 ubiquitin-protein ligase RSP5 T327N, P39940  0.12 ± 0.12
4. E3 ubiquitin-protein ligase RSP5 T326N, P39940  0.105 ± 0.087
5. E3 ubiquitin-protein ligase RSP5 T327E, P39940  0.105 ± 0.056
6. E3 ubiquitin-protein ligase RSP5 T327M, P39940  0.103 ± 0.077
7. E3 ubiquitin-protein ligase RSP5 T326D, P39940  0.094 ± 0.068
8. E3 ubiquitin-protein ligase RSP5 T326K, P39940  0.068 ± 0.051
9. E3 ubiquitin-protein ligase RSP5 T326E, P39940  0.055 ± 0.052
10. E3 ubiquitin-protein ligase RSP5 T327S, P39940  0.038 ± 0.05
11. E3 ubiquitin-protein ligase RSP5 T327H, P39940  0.019 ± 0.16
12. E3 ubiquitin-protein ligase RSP5 T326S, P39940  0.014 ± 0.054
13. E3 ubiquitin-protein ligase RSP5 T326M, P39940  0.008 ± 0.07
14. E3 ubiquitin-protein ligase RSP5 T327C, P39940  -0.001 ± 0.06
15. E3 ubiquitin-protein ligase RSP5 T326V, P39940  -0.008 ± 0.051
16. E3 ubiquitin-protein ligase RSP5 T326F, P39940  -0.02 ± 0.09
17. E3 ubiquitin-protein ligase RSP5 T326A, P39940  -0.023 ± 0.05
18. E3 ubiquitin-protein ligase RSP5 T326L, P39940  -0.023 ± 0.048
19. E3 ubiquitin-protein ligase RSP5 T326C, P39940  -0.033 ± 0.07
20. E3 ubiquitin-protein ligase RSP5 T327G, P39940  -0.037 ± 0.046
21. E3 ubiquitin-protein ligase RSP5 T327A, P39940  -0.049 ± 0.046
22. E3 ubiquitin-protein ligase RSP5 T327L, P39940  -0.049 ± 0.055
23. E3 ubiquitin-protein ligase RSP5 T326H, P39940  -0.051 ± 0.078
24. E3 ubiquitin-protein ligase RSP5 T326Y, P39940  -0.061 ± 0.072
25. E3 ubiquitin-protein ligase RSP5 T327R, P39940  -0.067 ± 0.044
26. E3 ubiquitin-protein ligase RSP5 T326R, P39940  -0.068 ± 0.042
27. E3 ubiquitin-protein ligase RSP5 T326Q, P39940  -0.071 ± 0.057
28. E3 ubiquitin-protein ligase RSP5 T327Q, P39940  -0.112 ± 0.057
29. E3 ubiquitin-protein ligase RSP5 S335R, P39940  -0.129 ± 0.051
30. E3 ubiquitin-protein ligase RSP5 S335V, P39940  -0.141 ± 0.051
31. E3 ubiquitin-protein ligase RSP5 T327W, P39940  -0.17 ± 0.053
32. E3 ubiquitin-protein ligase RSP5 T326G, P39940  -0.18 ± 0.048
33. E3 ubiquitin-protein ligase RSP5 T326W, P39940  -0.207 ± 0.08
34. E3 ubiquitin-protein ligase RSP5 S335T, P39940  -0.247 ± 0.087
35. E3 ubiquitin-protein ligase RSP5 T327P, P39940  -0.258 ± 0.068
36. E3 ubiquitin-protein ligase RSP5 T326I, P39940  -0.266 ± 0.2
37. E3 ubiquitin-protein ligase RSP5 S335W, P39940  -0.278 ± 0.064
38. E3 ubiquitin-protein ligase RSP5 S335Y, P39940  -0.33 ± 0.087
39. E3 ubiquitin-protein ligase RSP5 T342E, P39940  -0.377 ± 0.05
40. E3 ubiquitin-protein ligase RSP5 T327Y, P39940  -0.639 ± 0.27
41. E3 ubiquitin-protein ligase RSP5 T326P, P39940  -0.652 ± 0.079
